# From patent publication US8796227B2, “Peptides for inhibiting chemokine binding to chemokine receptors” (Biokine Therapeutics Ltd., priority 2002, dated 2014)
# “Also recorded” adds a separate entry of the source.
# Assays:
# [1] = biological target: T1, Eotaxin (Homo sapiens, UniProt P51671); assay: ELISA analysis of the synthetic chemokine-binding peptide; details: chemokine-coated wells, specific binding = at least two fold of binding to control proteins (BSA, Actin, Fibronectin)
# T1 construct: purchased PeproTech, Inc. 300-21
# T1 sequence (P51671 24-97): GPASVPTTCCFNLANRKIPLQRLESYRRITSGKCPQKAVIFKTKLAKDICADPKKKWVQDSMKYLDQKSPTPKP
# Description: (§1) Recombinant chemokines were ordered from PeproTech, Inc. (Rocky Hill, N.J., USA). Human SDF-1α (Cat. No. 300-28A), human MIG (Cat. No. 300-26) and human IL-8, (72 amino acids) (Cat. No. 200-08M), belong to the alpha-chemokines (C-X-C) family. Human MCP-1 (MCAF) (Cat. No. 300-04) and human Eotaxin (Cat No. 300-21) belong to the beta-chemokines (C-C family). All chemokines were prepared according to the company recommendations.
# (§2) Peptides were synthesized in the Weizmann Institute of Science, Rehovot, Israel, in order to perform tests for characterization of their influence on the biological activity of the chemokines. The format of the various synthesized peptides was as follows: The cyclic peptides, ACX7CGGGSK-biotin-G and the linear peptides, X12GGGSK-biotin-G. The peptides were biotinylated on their C-termini; the biotin will serve as a detector during the following experiments. Each synthetic peptide was dissolved to concentration of 1 mg/ml (˜0.6 mM) in 4% DMSO (Dimethyl Sulphoxide, Sigma, Cat. # D-2650).
# (§3) NUNC-Immuno™ MaxiSorp™ plates (Cat. No. 4-42404) were coated with the appropriate chemokine (0.1 ml/well, 0.1-1.0 μg/ml in 0.1 M NaHCO3, pH 8.6), overnight at 4° C. The plates were then blocked with 0.2 ml/well of blocking buffer (5 mg/ml BSA in 0.1 NaHCO3). Control wells were treated with blocking buffer alone, with no addition of target protein (chemokine). The plates were washed 6 times with PBST (0.1% Tween 20 in PBS), followed by incubation for 45 minutes at room temperature with 10-fold serial dilutions of individual synthetic peptides (10pg-10 μg) with 1% BSA (PBST-BSA)/well. After the plates were washed 6 times with PBST, the bound peptides were probed by HRP-SA Conjugate, diluted 1:10,000 to 1:20,000 in PBST-BSA, 0.1 ml/well for 45 minutes at room temperature. The target-bound synthetic peptides probed with HRP-SA were quantified by DAKO TMB one-step substrate system, followed by the addition of stop solution, HCl—H2SO4 mixture (0.1 ml/well) (1N HCl, 3N H2SO4). The results were analyzed by ELISA reader at OD450.
# (§4) The present invention identifies chemokine-binding peptides with biological activity. The binding specificities of the various peptides to the chemokines were determined by screening against BSA, Actin and Fibronectin-coated wells as negative controls in parallel experiments. The binding level of the peptides to the various chemokines, which reached at least two fold of the binding level to the control proteins, was considered a specific binding.
# (§5) The specific binding of the peptides was detected by screening methodology, using ELISA, as described in “Materials and Methods”, employing microplates coated with the various chemokines to be checked. The binding specificities of the various peptides to the various chemokines were determined by screening against BSA, Actin and Fibronectin-coated wells as negative controls in parallel experiments.
# (§6) Again, the specificity of the binding, either to one chemokine or more, was established by comparing binding level with the control binding level to non-related proteins, (shown in the Figure as a broken line).
# [2] = biological target: T2, human IL-8 (Homo sapiens, UniProt P10145); assay: as above; details: chemokine-coated wells, specific binding = at least two fold of binding to control proteins (BSA, Actin, Fibronectin)
# T2 construct: human IL-8, (72 amino acids) (Cat. No. 200-08M); purchased PeproTech, Inc. 200-08M
# T2 sequence (P10145 28-99 limits assumed): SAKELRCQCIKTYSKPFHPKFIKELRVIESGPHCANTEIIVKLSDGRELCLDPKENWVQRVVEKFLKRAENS
# Description: as §1, §2, §3, §4, §5, §6
# [3] = biological target: T3, Human MCP-1 (Homo sapiens, UniProt P13500); assay: as above; details: chemokine-coated wells, specific binding = at least two fold of binding to control proteins (BSA, Actin, Fibronectin)
# T3 construct: purchased PeproTech, Inc. 300-04
# T3 sequence (P13500 24-99): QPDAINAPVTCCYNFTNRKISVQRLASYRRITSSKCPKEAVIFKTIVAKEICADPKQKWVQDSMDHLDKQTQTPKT
# Description: as §1, §2, §3, §4, §5, §6
# [4] = biological target: T4, MIG (Homo sapiens, UniProt Q07325); assay: as above; details: chemokine-coated wells, specific binding = at least two fold of binding to control proteins (BSA, Actin, Fibronectin)
# T4 construct: purchased PeproTech, Inc. 300-26
# T4 sequence (Q07325 23-125): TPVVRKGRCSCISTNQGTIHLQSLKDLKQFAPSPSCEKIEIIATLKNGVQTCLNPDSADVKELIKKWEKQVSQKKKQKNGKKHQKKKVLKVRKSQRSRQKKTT
# Description: as §1, §2, §3, §4, §5, §6
# [5] = system: chemokines MCP-1, SDF-1α, MIG, Eotaxin and IL-8; assay: ELISA binding to the panel of chemokines (chemokine not singled out); parameters: species or system human; details: five chemokines tested, control binding level = one fold
# Description: as §1, §2, §3
# The present invention identifies chemokine-binding peptides with biological activity. The binding specificities of the various peptides to the chemokines were determined by screening against BSA, Actin and Fibronectin-coated wells as negative controls in parallel experiments. […]
# The specific binding of the peptides was detected by screening methodology, using ELISA, as described in “Materials and Methods”, employing microplates coated with the various chemokines to be checked. The binding specificities of the various peptides to the various chemokines were determined by screening against BSA, Actin and Fibronectin-coated wells as negative controls in parallel experiments. […]
# [6] = biological target: T4, MIG; assay: Biovalidation: laminar flow assay, chemokine and VCAM-1 activated adhesion of T cells; format: cell-based; details: for Percentage of arrested cells: MIG plus peptide (FIG. 4), MIG alone about 25-30%, control = VCAM-1 alone; for Reduction of the activity of MIG: T cell adhesion under flow
# Description: 50 ml blood was added to 10 ml Dextran (Dextran T-500 6% w/v) in PBS (phosphate buffer saline), and 7 ml citrate buffer (25 g citrate, 8 g citric acid in 500 ml PBS). The solution was incubated for 30 min at 25° C. 10 ml Ficoll 1077 (Sigma) was added to the bottom of the tube. The tube was then centrifuged at 2,000 rpm for 30 min, at 18° C., (with the brake mode of the centrifuge off). The interphase was collected and washed twice with 8 ml PBS-5% FCS (fetal calf serum), followed by centrifugation at 1,400 rpm, for 5 min, at 18° C. The cells were re-suspended in PBS-5% FCS at a concentration less than 10^8/ml. 2 ml of the cell solution were applied and incubated for 45 min at 25° C. on a Perspex Nylon wool column, which was pre-soaked with PBS-5% FCS. Each column was washed with 8 ml PBS-5% FCS and the cells (T-cells and erythrocytes) were eluted by 50 ml of 5 mM EDTA in PBS. A red pellet was obtained by centrifugation at 1,400 rpm, at 4° C., for 5 min, with the brake on. In order to perform lysis of the erythrocytes, the red pellet was re-suspended in 5 ml lysis-buffer (155 mM NH4Cl, 10 mM KHCO3, 0.1 mM EDTA, X0.1PBS) for 4 min, followed by immediate addition of 50 ml of PBS-EDTA.
# Following centrifugation at 1,400 rpm, at 4° C., for 5 min with brake on, the pellet was washed again with 50 ml PBS-EDTA and re-centrifuged under the same conditions. A white pellet was obtained and re-suspended in RPMI/10% FCS/L-glutamine/sodium pyruvate/antibiotics at a concentration of 3^X10^6 cells/ml. The cells were incubated for 2 h at 37° C., followed by collection of the non-adherent cells. The cells were ready for use in experiments after overnight incubation at 37° C. […]
# Laminar flow assays were performed as follows. Polystyrene plates (B.D) were coated with soluble VCAM-1 at 10 μg/ml in the presence of 2 μg/ml HSA carrier. The plates were washed three times with PBS and blocked with HSA (20 μg/ml in PBS) for 2 hrs at room temperature. Alternatively, washed plates were coated with 10 μg/ml MIG chemokine in PBS for 30 min at room temperature, before being blocked with HSA. The plates were assembled as the lower wall of a parallel wall flow chamber and mounted on the stage of an inverted microscope. The peptide, as described previously, (10 μg/ml) was allowed to settle on the substrate coated chamber wall for 10 min, at 37° C. and then washed. T cells (5×10^6/ml, purity >98%) were suspended in binding buffer, perfused into the chamber and allowed to settle on the substrate coated chamber wall for 1 min, at 37° C. Flow was initiated and increased in 2 to 2.5 fold increments every 5 sec. generating controlled shear stresses on the wall. Cells were visualized in a 20× objective of an inverted phase-contrast Diaphot Microscope (Nikon, Japan) and photographed with a long integration LIS-700 CCD video camera (Applitech; Holon, Israel), connected to a video recorder (AG-6730 S-VHS, Panasonic, Japan). The number of adherent cells resisting detachment by the elevated shear forces was determined after each interval by analysis of videotaped cell images, and was expressed as the percent of originally settled cells. All adhesion experiments were performed at least three times on multiple test fields.
# [7] = biological target: T5, IL-8 (Homo sapiens, UniProt P10145); assay: as above; format: cell-based; parameters: key to Level of Antagonistic Effect / Level of Effect: + 20%; ++ 50%; +++ 100%; − No effect; details: VCAM-1; for Level of Antagonistic Effect: Chemokine checked IL-8, T cells, peptide 10 μg/ml; for Abolishment of the activity of IL-8: T cell adhesion under flow
# T5 construct: human IL-8, (72 amino acids) (Cat. No. 200-08M); purchased PeproTech, Inc. 200-08M
# T5 sequence (P10145 28-99): T2 sequence (P10145 28-99 limits assumed)
# [8] = biological target: T1, Eotaxin; assay: as above; format: cell-based; details: VCAM-1
# [9] = biological target: T6, SDF-1α (Homo sapiens, UniProt P48061); assay: ELISA analysis of the synthetic chemokine-binding peptide; details: chemokine-coated wells, specific binding = at least two fold of binding to control proteins (BSA, Actin, Fibronectin)
# T6 construct: purchased PeproTech, Inc. 300-28A
# T6 sequence (P48061 22-89 limits assumed): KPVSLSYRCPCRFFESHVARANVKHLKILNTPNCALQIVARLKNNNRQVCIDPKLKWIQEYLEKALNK
# Description: as §1, §2, §3, §4, §5, §6
sequence,measurement,setting,value
LGFDPTSTRFYT [BKT-P22],Bound chemokines (at least): Eotaxin,[1],bind and found to bind Eotaxin
LLADTTHHRPWP [BKT-P37],Bound chemokines (at least): IL-8,[2],IL-8
ESDLTHALHWLG [BKT-P51],Bound chemokines (at least): MCP-1,[3],MCP-1
CAHLSPHKC [BKT-P50],Bound chemokines (at least): MIG,[4],MIG
GDFNSGHHTTTR [BKT-P27],Bound chemokines (at least): MCP-1,[3],MCP-1
YATQHNWRLKHE [BKT-P53],Bound chemokines (at least): MCP-1,[3],MCP-1
VHTSLLQKHPLP [BKT-P26],Bound chemokines (at least): MCP-1,[3],MCP-1
HPTTPFIHMPNF (HPTTPIHMPNF) [BKT-P54],Bound chemokines (at least): MIG,[4],MIG
FSMDDPERVRSP [BKT-P9],Binding to the various chemokines,[5],bind specifically to a single chemokine; also recorded: specifically bind to one specific chemokine
SIFAHQTPTHKN [BKT-P3],Level of Antagonistic Effect,"[6]; Chemokine checked MIG, T cells, VCAM-1, peptide 10 μg/ml",+++ (+++ 100%)
same,Percentage of arrested cells,[6],dramatically reduced
same,Reduction of the activity of MIG,[6]; VCAM-1,complete arrest
same,Binding to the various chemokines,[5],binds to all five chemokines tested
same,Bound chemokines (at least): IL-8,[2],IL-8
same,Bound chemokines (at least): MIG,[4],highest binding level and MIG
same,Bound chemokines (at least): MCP-1,[3],MCP-1
same,Level of Antagonistic Effect,[7],+++ (+++ 100%)
same,Abolishment of the activity of IL-8,[7],complete arrest
AHSLKSITNHGL [BKT-P44],Bound chemokines (at least): MCP-1,[3],MCP-1
ACHASLKHRC [BKT-P48],Bound chemokines (at least): MCP-1,[3],MCP-1
SAGHIHEAHRPL [BKT-P39],Level of Antagonistic Effect,"[8]; Chemokine checked Eotaxin, T cells, peptide 10 μg/ml",+++ (+++ 100%)
same,Blocking of the activity of Eotaxin,[8]; T cell adhesion under flow,100%
same,Bound chemokines (at least): IL-8,[2],IL-8
same,Bound chemokines (at least): SDF-1α,[9],SDF-1α
same,Bound chemokines (at least): Eotaxin,[1],"Eotaxin,"
same,Level of Antagonistic Effect,[7],−
same,Abolishment of the activity of IL-8,[7],no effect
CDIPWRNEC [BKT-P10],Percentage of arrested cells,[6],25%-30%
same,Reduction of the activity of MIG,[6]; VCAM-1,no influence on the activity of MIG
same,Bound chemokines (at least): MIG,[4],does not bind
